Laboratory results as given in patent US12129490B2, “Methods for generating hepatocytes and cholangiocytes from pluripotent stem cells” (UNIVERSITY HEALTH NETWORK, priority 2018, dated 2024).

B1: Wnt3A: wingless-type MMTV integration site family, member 3A factor, added to activin-induced EB cultures (protein, UniProt P56704 19-352, looked up)
Protein Wnt-3a: SYPIWWSLAVGPQYSSLGSQPILCASIPGLVPKQLRFCRNYVEIMPSVAEGIKIGIQECQHQFRGRRWNCTTVHDSLAIFGPVLDKATRESAFVHAIASAGVAFAVTRSCAEGTAAICGCSSRHQGSPGKGWKWGGCSEDIEFGGMVSREFADARENRPDARSAMNRHNNEAGRQAIASHMHLKCKCHGLSGSCEVKTCWWSQPDFRAIGDFLKDKYDSASEMVVEKHRESRGWVETLRPRYTYFKVPTERDLVYYEASPNFCEPNPETGSFGTRDRTCNVSSHGIDGCDLLCCGRGHNARAERRREKCRCVFHWCCYVSCQECTRVYDVHTCK
B2: TGFβ2: TGFbeta family member (protein, UniProt P61812 303-414, looked up)
Transforming growth factor …: ALDAAYCFRNVQDNCCLRPLYIDFKRDLGWKWIHEPKGYNANFCAGACPYLWSSDTQHSRVLSLYNTINPEASASPCCVSQDLEPLTILYYIGKTPKIEQLSNMIVKSCKCS
modifications: Transforming growth factor beta-2
notes: TGFbeta family member
B3: EGF: Epidermal Growth factor (protein, UniProt P01133 23-1207, looked up)
Pro-epidermal growth factor: PQHWSCPEGTLAGNGNSTCVGPAPFLIFSHGNSIFRIDTEGTNYEQLVVDAGVSVIMDFHYNEKRIYWVDLERQLLQRVFLNGSRQERVCNIEKNVSGMAINWINEEVIWSNQQEGIITVTDMKGNNSHILLSALKYPANVAVDPVERFIFWSSEVAGSLYRADLDGVGVKALLETSEKITAVSLDVLDKRLFWIQYNREGSNSLICSCDYDGGSVHISKHPTQHNLFAMSLFGDRIFYSTWKMKTIWIANKHTGKDMVRINLHSSFVPLGELKVVHPLAQPKAEDDTWEPEQKLCKLRKGNCSSTVCGQDLQSHLCMCAEGYALSRDRKYCEDVNECAFWNHGCTLGCKNTPGSYYCTCPVGFVLLPDGKRCHQLVSCPRNVSECSHDCVLTSEGPLCFCPEGSVLERDGKTCSGCSSPDNGGCSQLCVPLSPVSWECDCFPGYDLQLDEKSCAASGPQPFLLFANSQDIRHMHFDGTDYGTLLSQQMGMVYALDHDPVENKIYFAHTALKWIERANMDGSQRERLIEEGVDVPEGLAVDWIGRRFYWTDRGKSLIGRSDLNGKRSKIITKENISQPRGIAVHPMAKRLFWTDTGINPRIESSSLQGLGRLVIASSDLIWPSGITIDFLTDKLYWCDAKQSVIEMANLDGSKRRRLTQNDVGHPFAVAVFEDYVWFSDWAMPSVMRVNKRTGKDRVRLQGSMLKPSSLVVVHPLAKPGADPCLYQNGGCEHICKKRLGTAWCSCREGFMKASDGKTCLALDGHQLLAGGEVDLKNQVTPLDILSKTRVSEDNITESQHMLVAEIMVSDQDDCAPVGCSMYARCISEGEDATCQCLKGFAGDGKLCSDIDECEMGVPVCPPASSKCINTEGGYVCRCSEGYQGDGIHCLDIDECQLGEHSCGENASCTNTEGGYTCMCAGRLSEPGLICPDSTPPPHLREDDHHYSVRNSDSECPLSHDGYCLHDGVCMYIEALDKYACNCVVGYIGERCQYRDLKWWELRHAGHGQQQKVIVVAVCVVVLVMLLLLSLWGAHYYRTQKLLSKNPKNPYEESSRDVRSRRPADTEDGMSSCPQPWFVVIKEHQDLKNGGQPVAGEDGQAADGSMQPTSWRQEPQLCGMGTEQGCWIPVSSDKGSCPQVMERSFHMPSYGTQTLEGGVEKPHSLLSANPLWQQRALDPPHQMELTQ
modifications: Pro-epidermal growth factor
B4: TGFβ3: TGFbeta family member (protein, UniProt P10600 301-412, looked up)
Transforming growth factor …: ALDTNYCFRNLEENCCVRPLYIDFRQDLGWKWVHEPKGYYANFCSGPCPYLRSADTTHSTVLGLYNTLNPEASASPCCVPQDLEPLTILYYVGRTPKVEQLSNMVVKSCKCS
modifications: Transforming growth factor beta-3
notes: TGFbeta family member

Tests used:
[1] = tested on: hESC-derived embryoid bodies; assay: Endoderm induction in hESC-derived embryoid bodies, flow cytometry; assay type: cell-based, human; conditions: day six EBs
Method: Similar to protocols using monolayer cultures^16, it involves specific steps that recapitulate the critical stages of liver development in the early embryo. EBs are formed from small aggregates by culture for 24 hours in low levels of BMP4, as previously described^18. The EBs are subsequently exposed to high concentrations of activin A (hereafter referred to as activin) for five days to induce definitive endoderm, a population defined by expression of the surface markers CXCR4, CKIT and EPCAM and the transcription factors SOX17 and FOXA2.
Addition of Wnt3A to the activin-induced EB cultures led to reproducible increases in the proportion of CXCR4^+, SOX17^+ and FOXA2^+ cells within the EBs (FIG. 1c). With the increase in CXCR4 expression, the proportion of CKIT^+CXCR4^+ and CXCR4^+EPCAM^+ cells increased to greater than 95% of the population. […] Endoderm induction in the EBs was influenced by the base culture media used. StemPro34 supported more efficient endoderm induction than neural basal media that we used previously (FIG. 1f). The induction of highly enriched endoderm is an important first step in the efficient and reproducible generation of hepatocyte-like cells from hPSCs.
Media was changed every 3 days.
Flow cytometric analyses were performed as described previously^45. […] Stained cells were analyzed using an LSRII flow cytometer (BD).

[2] = tested on: hPSC-derived hepatoblast aggregates; assay: Growth factor addition to hepatoblast aggregates co-cultured on OP9 stroma; assay type: cell-based, human; conditions: for cholangiocyte branching: hepatoblasts co-cultured with OP9
Source text: To investigate the effect of Notch signaling on cholangiocyte development, we co-cultured the hepatoblast population (day 25) with OP9 stromal cells that are known to express different Notch ligands including Jagged-1^4,5. […] To overcome this problem, we generated 3D aggregates from the day 25 monolayer cells and cultured them on the OP9 stromal cells.

Molecule | cholangiocyte branching [2] | also measured
B1 |  | proportion co-expressing CXCR4 and CKIT or CXCR4 and EPCAM [1]: greater than 95%
B2 | promote branching structures | 
B3 |  | development of CK19+ clusters ([2]; OP9 co-culture): increase in the size
B4 | promote branching structures | 
